The record followed here is PMC6395948 (Molecular Cell, 2019).

One data set deals with T1, McbD (Escherichia coli, UniProt P23186 1-396).
T1 sequence: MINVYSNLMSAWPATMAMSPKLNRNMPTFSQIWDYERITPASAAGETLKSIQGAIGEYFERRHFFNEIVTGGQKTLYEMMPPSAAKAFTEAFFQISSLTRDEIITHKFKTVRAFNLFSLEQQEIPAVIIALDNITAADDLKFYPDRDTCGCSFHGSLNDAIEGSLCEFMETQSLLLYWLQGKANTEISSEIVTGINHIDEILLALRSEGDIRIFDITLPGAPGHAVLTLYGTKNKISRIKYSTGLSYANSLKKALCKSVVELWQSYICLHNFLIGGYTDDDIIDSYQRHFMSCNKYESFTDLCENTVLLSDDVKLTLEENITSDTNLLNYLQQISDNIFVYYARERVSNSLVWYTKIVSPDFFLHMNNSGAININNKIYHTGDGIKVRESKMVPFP
Briefly: crystal structure.

The data set “crystal structure” deals with the molecule itself. Briefly: crystal structure.

B1: McbB (natural protein, Escherichia coli)
chain: MVLPDIKKGKDMINILPFEIISRNTKTLLITYISSVDITHEGMKKVLESLRSKQGIISEYLLDKLLDESLIDKDKGKEFLITTGVINKTKTSPLWVNSVIISDVPHLFSNAREQWKCDGVFVSHIIDIKDNNINVSDSTLIWLHLENYHSDIVKRIYSKFESNPGVAFIQSYYLKESFRIDGVYSPDLGTPCHFCHIERWLSREEKSFRRNEMSWANLLQLLKKYQMTLPALALGESERGFSYHLIKRRLQELTGTSLVKSHVDNFMSSVSADLITCILCKEPVIHWQACSCLER
As a reminder, the stoichiometry N is a count of units in the complex or per binding partner. In the case of B1, in the data set with McbD, the binding result was “binds”. The “stoichiometry N” value in “crystal structure” is 2.
